In assay [1] the target is T1, CTLA-4-Ig fusion protein comprising the extracellular domain of human CTLA-4 fused to the Fc region of human … (human, UniProt P16410 36-161).
T1 construct: extracellular domain; also called CTLA-4 Hu Ig; soluble human CTLA-4 fusion protein; not shown: Fc region of human immunoglobulin
T1 sequence (looked up): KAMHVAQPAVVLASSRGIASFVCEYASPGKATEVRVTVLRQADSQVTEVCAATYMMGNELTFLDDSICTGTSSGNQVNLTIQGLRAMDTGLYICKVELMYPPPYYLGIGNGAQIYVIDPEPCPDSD
The assay is described as follows: blocking assay, flow cytometry: inhibition of CTLA-4-Ig binding to mouse B7-1 expressing cells. (A flow cytometer gives signals particle by particle.)

Assay [2] deals with T2, chimeric CTLA-4 protein comprising the extracellular and transmembrane domains of human CTLA-4 linked to the … (human; murine, UniProt P16410 36-187; P24161 52-164, limits assumed).
T2 construct: domain: extracellular and transmembrane domains;domain: intracellular domain; also called cell surface CTLA4; hCTLA4+ cells
The assay is described as follows: flow cytometry on cells expressing chimeric human CTLA-4/CD3zeta; PE anti-human IgG detection.

B1: 3A4 human monoclonal antibody (antibody, V domains shown)
VH: QVQVVESGGGVVQPGRSLRLSCAASGFTFSSYGMHWVRQAPGKGLEWVAVIWYDGSNKYYVDSVKGRFTISRDNSKNTLYLQMNSLRAEDTAVYYCARGPGYSSSFDYWGQGTLVTVSS
VL: DIQMTQSPSSLSASVGDRVTITCRASQGISSWLAWYQQKPEKAPKSLIYAASSLQSGVPSRFSGSGSGTDFTLTISSLQPEDFATYYCQQYNSYPLTFGGGTKVEIK
notes: Purified human IgG kappa antibody from a hybridoma (HuMab mouse); also called mAb 3A4
Usually EC50 stands for the concentration at which the effect is half-maximal. A high value points to a need for much substance. Regarding B1, the figures for the concentration giving a half-maximal response (EC50) in assay [1] and in assay [2] were 7.41 nM and 0.661 nM, respectively.

B2: 6C10 human monoclonal antibody (antibody, V domains shown)
VH: QVQLVESGGGVVQPGRSLRLSCTASGFTFSSHGMHWVRQAPGKGLEWVAVVWFDGSNKYYVDSVKGRFTISRDNSKNTLYLQMNSLRAEDTAVYYCARGSGYSSGFDYWGQGTLVTVSS
VL: DIQMTQSPSSLSASVGDRVTITCRASQGISSWLAWYQQKPEKAPKSLIYAASSLQSGVPSRFSGSGSGTDFTLTISSLQPEDFATYYCQQYNSYPLTFGGGTKVEIK
notes: Purified human IgG kappa antibody from a hybridoma (HuMab mouse); also called mAb 6C10
For the molecule B2, the values for the EC50 in assay [1] and in assay [2] were 15.3 nM and 0.247 nM, respectively.
